Laboratory results published in IntAct's records for PubMed 18725399.

B1: U3 small nucleolar RNA-associated protein 6 (Saccharomyces cerevisiae), Q02354 (parent)
chain: MSKTRYYLEQCIPEMDDLVEKGLFTKNEVSLIMKKRTDFEHRLNSRGSSINDYIKYINYESNVNKLRAKRCKRILQVKKTNSLSDWSIQQRIGFIYQRGTNKFPQDLKFWAMYLNYMKARGNQTSYKKIHNIYNQLLKLHPTNVDIWISCAKYEYEVHANFKSCRNIFQNGLRFNPDVPKLWYEYVKFELNFITKLINRRKVMGLINEREQELDMQNEQKNNQAPDEEKSHLQVPSTGDSMKDKLNELPEADISVLGNAETNPALRGDIALTIFDVCMKTLGKHYINKHKGYYAISDSKMNIELNKETLNYLFSESLRYIKLFDEFLDLERDYLINHVLQFWKNDMYDLSLRKDLPELYLKTVMIDITLNIRYMPVEKLDIDQLQLSVKKYFAYISKLDSASVKSLKNEYRSYLQDNYLKKMNAEDDPRYKILDLIISKL
partner: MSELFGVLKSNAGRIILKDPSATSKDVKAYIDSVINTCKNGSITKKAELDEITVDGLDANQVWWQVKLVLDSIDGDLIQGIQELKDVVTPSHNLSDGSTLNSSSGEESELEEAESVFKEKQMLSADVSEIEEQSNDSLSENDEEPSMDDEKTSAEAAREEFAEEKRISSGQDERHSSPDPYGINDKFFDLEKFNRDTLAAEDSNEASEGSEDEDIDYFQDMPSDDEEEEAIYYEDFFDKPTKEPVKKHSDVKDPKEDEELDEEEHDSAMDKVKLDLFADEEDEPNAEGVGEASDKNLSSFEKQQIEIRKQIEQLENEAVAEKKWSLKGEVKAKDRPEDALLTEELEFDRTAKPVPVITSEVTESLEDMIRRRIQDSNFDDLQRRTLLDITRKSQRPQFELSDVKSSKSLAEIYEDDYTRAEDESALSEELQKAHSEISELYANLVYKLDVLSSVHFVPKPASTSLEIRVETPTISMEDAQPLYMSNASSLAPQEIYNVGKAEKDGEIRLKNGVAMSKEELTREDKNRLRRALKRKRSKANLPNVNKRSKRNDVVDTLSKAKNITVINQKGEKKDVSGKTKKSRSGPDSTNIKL
B2: U3 small nucleolar RNA-associated protein 6 (Saccharomyces cerevisiae), Q02354 (parent)
chain: B1 chain
partner: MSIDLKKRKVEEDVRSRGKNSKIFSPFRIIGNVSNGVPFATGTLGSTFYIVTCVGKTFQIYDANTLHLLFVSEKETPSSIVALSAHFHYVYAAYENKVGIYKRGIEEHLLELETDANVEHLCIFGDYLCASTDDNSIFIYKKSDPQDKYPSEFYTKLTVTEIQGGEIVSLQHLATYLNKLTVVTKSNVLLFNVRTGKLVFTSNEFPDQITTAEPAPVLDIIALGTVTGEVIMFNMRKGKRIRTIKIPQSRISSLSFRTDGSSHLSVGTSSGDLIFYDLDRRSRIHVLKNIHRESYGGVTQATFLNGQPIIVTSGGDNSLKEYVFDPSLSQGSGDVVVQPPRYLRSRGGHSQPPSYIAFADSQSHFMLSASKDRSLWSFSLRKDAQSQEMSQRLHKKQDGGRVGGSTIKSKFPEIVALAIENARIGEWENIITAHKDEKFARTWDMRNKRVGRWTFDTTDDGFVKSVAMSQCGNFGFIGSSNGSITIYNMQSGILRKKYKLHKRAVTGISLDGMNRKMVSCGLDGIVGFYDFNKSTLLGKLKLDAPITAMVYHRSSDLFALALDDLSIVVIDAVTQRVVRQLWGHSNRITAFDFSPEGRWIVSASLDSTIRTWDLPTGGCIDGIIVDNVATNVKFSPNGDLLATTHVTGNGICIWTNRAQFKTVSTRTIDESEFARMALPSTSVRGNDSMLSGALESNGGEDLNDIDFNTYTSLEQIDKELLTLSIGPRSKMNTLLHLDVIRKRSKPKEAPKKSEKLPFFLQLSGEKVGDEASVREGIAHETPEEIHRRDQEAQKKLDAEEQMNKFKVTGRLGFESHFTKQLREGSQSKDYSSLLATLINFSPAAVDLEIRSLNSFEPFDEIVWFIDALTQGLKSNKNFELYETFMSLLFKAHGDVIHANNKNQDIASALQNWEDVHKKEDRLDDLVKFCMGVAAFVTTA

Variants of: B1
Details: with mpp10_yeast MPP10, P47083

| effect of a mutation on the interaction | Variant |
| --- | --- |
| decreasing interaction | G99E |

Variants of: B2
Details: with utp21_yeast UTP21, Q06078

| effect of a mutation on the interaction | Variant |
| --- | --- |
| disrupting interaction | G99E |
